Test results published in patent US20160229903.

Legend:
[1] = system: VWF-052 (VWF D′D3-Fc with non-cleavable 48 amino acid long GS linker)
[2] = system: VWF-055 (VWF D′D3-Fc with 34 amino acid long little a2 linker)
VWF-055 (VWF D′D3-Fc with 34 amino acid long little a2 linker), sequence (chain, as listed by the source): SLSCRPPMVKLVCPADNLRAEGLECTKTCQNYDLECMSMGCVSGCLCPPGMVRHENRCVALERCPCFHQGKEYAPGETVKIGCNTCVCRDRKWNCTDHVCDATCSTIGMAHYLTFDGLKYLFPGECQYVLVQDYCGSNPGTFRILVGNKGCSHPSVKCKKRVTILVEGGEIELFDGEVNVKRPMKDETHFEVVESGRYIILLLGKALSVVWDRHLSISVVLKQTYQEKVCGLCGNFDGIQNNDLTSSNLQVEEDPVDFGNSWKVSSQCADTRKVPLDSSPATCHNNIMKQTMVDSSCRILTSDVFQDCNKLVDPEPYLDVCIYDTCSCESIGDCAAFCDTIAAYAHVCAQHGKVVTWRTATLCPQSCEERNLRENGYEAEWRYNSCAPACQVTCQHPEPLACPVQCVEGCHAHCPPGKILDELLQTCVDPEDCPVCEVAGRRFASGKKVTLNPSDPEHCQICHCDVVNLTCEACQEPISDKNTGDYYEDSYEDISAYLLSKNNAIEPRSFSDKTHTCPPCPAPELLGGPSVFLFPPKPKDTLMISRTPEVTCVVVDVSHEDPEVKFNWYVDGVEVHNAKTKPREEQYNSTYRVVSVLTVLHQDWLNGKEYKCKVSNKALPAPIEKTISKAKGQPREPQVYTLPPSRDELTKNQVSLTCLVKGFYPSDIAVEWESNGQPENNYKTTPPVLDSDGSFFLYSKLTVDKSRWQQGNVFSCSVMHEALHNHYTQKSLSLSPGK

VWF-052 (VWF D′D3-Fc with non-cleavable 48 amino acid long GS linker), sequence (chain, as listed by the source): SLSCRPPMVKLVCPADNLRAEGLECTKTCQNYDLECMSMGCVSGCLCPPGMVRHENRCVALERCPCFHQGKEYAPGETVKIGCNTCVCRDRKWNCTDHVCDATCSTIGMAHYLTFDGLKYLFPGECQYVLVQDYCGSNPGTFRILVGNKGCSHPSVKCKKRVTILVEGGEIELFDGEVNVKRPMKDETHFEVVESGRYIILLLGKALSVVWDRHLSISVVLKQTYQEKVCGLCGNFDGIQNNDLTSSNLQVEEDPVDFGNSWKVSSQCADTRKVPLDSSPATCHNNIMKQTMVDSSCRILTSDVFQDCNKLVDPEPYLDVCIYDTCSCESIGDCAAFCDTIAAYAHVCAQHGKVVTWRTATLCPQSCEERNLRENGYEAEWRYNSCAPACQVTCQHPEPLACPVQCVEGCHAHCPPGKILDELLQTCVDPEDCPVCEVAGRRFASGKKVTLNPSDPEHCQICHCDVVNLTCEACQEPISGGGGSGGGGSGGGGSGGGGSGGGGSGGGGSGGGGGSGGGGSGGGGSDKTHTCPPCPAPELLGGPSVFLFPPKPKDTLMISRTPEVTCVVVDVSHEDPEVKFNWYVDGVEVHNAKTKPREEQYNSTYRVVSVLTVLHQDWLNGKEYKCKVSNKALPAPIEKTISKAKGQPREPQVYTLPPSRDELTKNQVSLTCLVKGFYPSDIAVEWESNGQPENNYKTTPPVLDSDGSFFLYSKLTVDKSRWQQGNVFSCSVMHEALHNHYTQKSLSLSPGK

## human alpha-thrombin
[1]
  thrombin cleavage (Biacore, release of D′D3 from captured construct): as expected is not cleaved by thrombin
[2]
  thrombin cleavage (Biacore, release of D′D3 from captured construct): displayed similar thrombin cleavage as VWF-039 construct
